# Data taken from patent US5786195.
# Test system: T1, BssHII restriction endonuclease (bssHIIR) (Bacillus stearothermophilus H3)
# T1 sequence: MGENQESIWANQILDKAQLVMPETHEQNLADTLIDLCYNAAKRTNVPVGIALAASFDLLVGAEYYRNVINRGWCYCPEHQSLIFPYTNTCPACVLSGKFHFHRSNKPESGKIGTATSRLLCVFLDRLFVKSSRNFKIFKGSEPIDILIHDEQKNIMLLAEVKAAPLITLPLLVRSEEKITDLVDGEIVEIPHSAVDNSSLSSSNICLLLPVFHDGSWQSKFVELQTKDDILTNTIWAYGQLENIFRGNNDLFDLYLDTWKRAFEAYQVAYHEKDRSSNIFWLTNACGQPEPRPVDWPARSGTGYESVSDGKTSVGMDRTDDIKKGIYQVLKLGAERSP
# Experiment: cleavage_in_vitro
# Conditions: cell extract; activity seen after 10- and 100-fold dilution
substance,measurement,value
lambda DNA (BssHII sites),activity (units per g wet cells),100000
